Assay [1] deals with T1, recombinant cynomolgus monkey CD20 (cynomolgus monkey, UniProt M4ZHZ6 1-297).
T1 sequence: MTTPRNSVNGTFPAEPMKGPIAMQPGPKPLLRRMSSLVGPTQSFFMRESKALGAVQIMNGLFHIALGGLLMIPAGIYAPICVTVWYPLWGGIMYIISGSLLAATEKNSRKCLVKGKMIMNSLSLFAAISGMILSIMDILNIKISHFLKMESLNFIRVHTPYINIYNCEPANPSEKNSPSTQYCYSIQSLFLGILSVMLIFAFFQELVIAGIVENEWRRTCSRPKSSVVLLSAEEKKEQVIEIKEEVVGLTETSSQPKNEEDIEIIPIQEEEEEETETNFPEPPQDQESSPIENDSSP

For assay [2], the target named is T2, recombinant cynomolgus monkey CD19 (cynomolgus monkey, UniProt A0A2K5W8L9 20-292).
T2 sequence: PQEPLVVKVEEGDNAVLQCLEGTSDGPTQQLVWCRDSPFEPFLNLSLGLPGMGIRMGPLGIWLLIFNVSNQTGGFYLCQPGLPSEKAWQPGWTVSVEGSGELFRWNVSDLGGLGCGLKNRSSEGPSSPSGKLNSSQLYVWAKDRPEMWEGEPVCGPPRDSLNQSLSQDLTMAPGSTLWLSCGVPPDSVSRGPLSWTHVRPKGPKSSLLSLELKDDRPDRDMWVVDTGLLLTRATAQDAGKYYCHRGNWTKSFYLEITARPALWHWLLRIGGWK

For assay [3], the target named is T3, recombinant human Fc gamma RIIIb (CD16b) (human, UniProt O75015 17-200).
Assay [4] addresses T4, recombinant human Fc gamma RIIIa (CD16a) 158V (human, UniProt P08637 17-208).
Assay [5] deals with T5, recombinant human Fc gamma RIIIa (CD16a) 158F (human, UniProt P08637 17-208).
The target in assay [6] is T6, recombinant human Fc gamma RIIa (CD32a) 131R (human, UniProt P12318 36-218).
T6 sequence (looked up): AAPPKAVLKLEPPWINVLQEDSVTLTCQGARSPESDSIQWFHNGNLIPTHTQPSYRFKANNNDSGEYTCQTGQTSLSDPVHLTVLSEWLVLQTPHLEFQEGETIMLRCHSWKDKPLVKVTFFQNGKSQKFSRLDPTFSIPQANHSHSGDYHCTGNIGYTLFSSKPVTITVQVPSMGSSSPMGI

Assay [7] deals with T7, recombinant human Fc gamma RI (CD64) (human, UniProt P12314 16-288).
In assay [8] the target is T8, recombinant human Fc gamma RIIb/c (CD32b/c) (human, UniProt P31994 46-217).
T8 sequence (looked up): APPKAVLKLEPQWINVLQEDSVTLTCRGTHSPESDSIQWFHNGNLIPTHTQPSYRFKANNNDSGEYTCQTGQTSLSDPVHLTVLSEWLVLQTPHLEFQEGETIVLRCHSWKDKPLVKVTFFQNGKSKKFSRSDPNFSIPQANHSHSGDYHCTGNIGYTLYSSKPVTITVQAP

Assay [9] addresses T9, cynomolgus monkey Fc gamma receptor CD32a (cynomolgus monkey).
In assay [10] the target is T10, cynomolgus monkey Fc gamma receptor CD16 (cynomolgus monkey, UniProt Q8SPW2 17-208).
The target of assay [11] is T11, cynomolgus monkey Fc gamma receptor CD32b (cynomolgus monkey).
For assay [12], the target named is T12, recombinant human CD19 (human, UniProt P15391 20-291).
T12 sequence (looked up): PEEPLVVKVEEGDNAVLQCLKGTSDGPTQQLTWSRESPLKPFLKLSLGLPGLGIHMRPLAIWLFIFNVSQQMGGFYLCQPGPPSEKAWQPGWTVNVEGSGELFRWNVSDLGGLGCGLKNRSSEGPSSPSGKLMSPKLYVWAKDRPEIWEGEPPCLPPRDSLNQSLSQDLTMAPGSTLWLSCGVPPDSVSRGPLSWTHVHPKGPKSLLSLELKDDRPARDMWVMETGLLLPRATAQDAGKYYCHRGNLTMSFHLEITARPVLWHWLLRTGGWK

In assay [13] the target is T13, recombinant human full-length CD20 (human, UniProt P11836 1-297).
T13 sequence (looked up): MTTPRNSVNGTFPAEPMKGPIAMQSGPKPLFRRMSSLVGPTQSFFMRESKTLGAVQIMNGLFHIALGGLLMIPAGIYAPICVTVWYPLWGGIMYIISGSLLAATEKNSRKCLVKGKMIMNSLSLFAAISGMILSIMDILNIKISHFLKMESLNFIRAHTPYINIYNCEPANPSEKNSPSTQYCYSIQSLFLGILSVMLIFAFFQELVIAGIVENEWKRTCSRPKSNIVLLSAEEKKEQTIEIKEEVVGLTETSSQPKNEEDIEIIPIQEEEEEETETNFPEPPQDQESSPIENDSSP

In assay [14] the target is T14, recombinant human Fc gamma RIIa (CD32a) 131H (human, UniProt P12318 36-218).
T14 sequence (looked up): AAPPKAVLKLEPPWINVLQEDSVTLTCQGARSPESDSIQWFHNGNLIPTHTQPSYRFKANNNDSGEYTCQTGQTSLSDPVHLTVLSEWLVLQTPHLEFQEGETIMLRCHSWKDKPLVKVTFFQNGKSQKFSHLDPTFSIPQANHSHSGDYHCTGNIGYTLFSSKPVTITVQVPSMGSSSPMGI

In assay [15] the target is T6, recombinant human Fc gamma RIIa (CD32a) …. The source holds these as a separate data set.
For assay [16], the target named is T7, recombinant human Fc gamma RI (CD64). The source holds these as a separate data set.
The target of assay [17] is T8, recombinant human Fc gamma RIIb/c …. This is another data set of the same source.
Assay [18] addresses T3, recombinant human Fc gamma RIIIb (CD16b). The source holds these as a separate data set.
Assay [19] has as its target T4, recombinant human Fc gamma RIIIa …. This is another data set of the same source.
Assay [20] has as its target T5, recombinant human Fc gamma RIIIa …. This is another data set of the same source.
The target of assay [21] is T9, cynomolgus monkey Fc gamma receptor …. The source holds these as a separate data set.
The target of assay [22] is T10, cynomolgus monkey Fc gamma receptor CD16. The source holds these as a separate data set.
Assay [23] addresses T11, cynomolgus monkey Fc gamma receptor …. The source holds these as a separate data set.
Assay [24] deals with CD19 (target of Table 9).

Like-named read-outs stand apart in the source and are kept apart here.

T10 sequence (Q8SPW2 17-208 limits assumed): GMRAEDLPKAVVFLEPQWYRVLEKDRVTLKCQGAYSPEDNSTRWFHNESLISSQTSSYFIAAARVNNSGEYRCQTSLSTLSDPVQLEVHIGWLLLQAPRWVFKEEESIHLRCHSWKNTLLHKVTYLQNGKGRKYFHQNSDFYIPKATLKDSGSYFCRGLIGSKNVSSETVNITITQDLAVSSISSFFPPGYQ
T4 sequence (P08637 17-208 F176V limits assumed): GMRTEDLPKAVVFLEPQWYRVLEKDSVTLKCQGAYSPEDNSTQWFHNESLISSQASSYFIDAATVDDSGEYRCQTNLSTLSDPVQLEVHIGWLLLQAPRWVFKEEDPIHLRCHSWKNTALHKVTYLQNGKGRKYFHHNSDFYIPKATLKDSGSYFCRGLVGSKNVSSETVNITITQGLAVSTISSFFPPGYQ
T3 sequence (O75015 17-200 limits assumed): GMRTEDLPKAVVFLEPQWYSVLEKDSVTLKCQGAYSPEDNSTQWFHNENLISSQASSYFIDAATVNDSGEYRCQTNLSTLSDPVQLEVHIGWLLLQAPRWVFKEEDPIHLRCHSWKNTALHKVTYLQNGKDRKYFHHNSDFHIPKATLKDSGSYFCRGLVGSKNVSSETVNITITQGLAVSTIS
T5 sequence (P08637 17-208 limits assumed): as the sequence (P08637 17-208 F176V limits assumed) above, with V160F counted along it
T7 sequence (P12314 16-288 limits assumed): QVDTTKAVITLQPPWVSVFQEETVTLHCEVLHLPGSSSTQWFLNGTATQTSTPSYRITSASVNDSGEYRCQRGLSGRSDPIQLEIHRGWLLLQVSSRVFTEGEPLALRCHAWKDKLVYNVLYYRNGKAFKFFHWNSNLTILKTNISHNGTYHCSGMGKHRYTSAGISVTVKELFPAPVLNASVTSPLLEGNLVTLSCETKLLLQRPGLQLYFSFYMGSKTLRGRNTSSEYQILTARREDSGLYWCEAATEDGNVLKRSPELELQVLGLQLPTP

B1: HB2198 (bispecific antibody, human IgG1, kappa)
heavy 1: QVQLVQSGGGVVQPGRSLRLSCAASGVSLPDYGVSWVRKAPGKGLEWVAVIWGSETTYYNSALKSRFTISRDNSKNTLYLQMSSLRAEDTAVYYCAKHYYYGGSFAMDYWGQGTLVTVSSASTKGPSVFPLAPSSKSTSGGTAALGCLVKDYFPEPVTVSWNSGALTSGVHTFPAVLQSSGLYSLESVVTVPSSSLGTQTYICNVNHKPSNTKVDKKVEPKSCTDWSPYADQSIKVRISLKSALGDKAYEWNDNEMYLFRSSVAYAMRQYFLKVKNQMILFGEEDVRVANLKPRISFNFFVTAPKNVSDIIPRTEVEKAIRMSRSRINDAFRLNDNSLEFLGIQPTLGPPNQPPVSTSTSPTRSMAPGAVHLPQPVSTRDKTHTCPPCPAPELLGGPDVFLFPPKPKDTLMISRTPEVTCVVVDVSHEDPEVKFNWYVDGVEVHNAKTKPREEQYNSTYRVVSVLTVLHQDWLNGKEYKCKVSNKALPAPEEKTISKAKGQPREPQVCTLPPSRDELTKNQVSLSCAVKGFYPSDIAVEWESNGQPENNYKTTPPVLDSDGSFFLVSKLTVDKSRWQQGNVFSCSVMHEALHNRFTQKSLSLSPG
heavy 2: QIVLSQSPAILSASPGEKVTMTCRASSSVSYIHWFQKKPGSSPKPWIYATSNLASGVPVRFSGSGSGTSYSLTISRVEAEDAATYYCQQWTSNPPTFGGGTKVEIKSSASTKGPSVFPLAPSSKSTSGGTAALGCLVKDYFPEPVTVSWNSGALTSGVHTFPAVLQSSGLYSLKSVVTVPSSSLGTQTYICNVNHKPSNTKVDKKVEPKSCDKTHTCPPCPAPELLGGPDVFLFPPKPKDTLMISRTPEVTCVVVDVSHEDPEVKFNWYVDGVEVHNAKTKPREEQYNSTYRVVSVLTVLHQDWLNGKEYKCKVSNKALPAPEEKTISKAKGQPREPQVYTLPPCRDELTKNQVSLWCLVKGFYPSDIAVEWESNGQPENNYKTTPPVLDSDGSFFLYSKLTVDKSRWQQGNVFSCSVMHEALHNHYTQKSLSLSPG
light 1: DIQMTQSPSSLSASVGDRVTITCRASQDISKYLNWYQEKPGKAIKLLIYHTSRLHSGVPSRFSGSGSGTDFTLTISSLQPEDFATYYCQQGATLPYTFGPGTKLEIKRTVAAPSVFIFPPSDEQLKSGTASVKCLLNNFYPREAKVQWKVDNALQSGNSQESVTEQDSKDSTYSLSSTLTLSKADYEKHKVYACEVTHQGLSSPVTKSFNRGEC
light 2: QVQLQQPGAELVKPGASVKMSCKASGYTFTSYNMHWVKETPGRGLEWIGAIYPGNGDTSYNQKFKGKATLTADKSSSTAYMQLSSLTSEDSAVYYCARSTYYGGDWYFNVWGAGTLVTVSSASVAAPSVFIFPPSDEQLKSGTASVECLLNNFYPREAKVQWKVDNALQSGNSQESVTEQDSKDSTYSLSSTLTLSKADYEKHKVYACEVTHQGLSSPVTKSFNRGEC
For B1, the Kd in assay [1] was 1.4 nM; in assay [2], 410 nM; in [3], 95 nM; in [4], 4.19 nM; in assay [5] it was 15.7 nM; in assay [6] it was 128 nM. Besides, the Kd in assay [7] was under 0.02 nM; in assay [8], 283 nM; in assay [9] it was 4 nM; in assay [10] it was 2 nM; in [11], 3.4 nM; in assay [12], 1.5 nM. Moreover, the Kd in assay [13] was 0.2 nM; in assay [14], under 2 nM; in [15] it was under 2 nM; in [16], under 0.02 nM; in assay [17] it was 2.2 nM; in assay [18], under 2 nM. Also, the Kd in assay [19] is under 2 nM; in [20], under 2 nM; in [21], 305 nM; in [22], 1.76 nM; in [23], 218 nM.

B2: B19c66AAC9 (antibody, human IgG1, kappa)
light: not shown
heavy: QVQLQQSGAELVRPGSSVKISCKASGYAFSSYWMNWVKQRPGQGLEWIGQIWPGDGDTNYNGKFKGKATLTADESSSTAYMQLSSLASEDSAVYFCARRETTTVGRYYYAMDYWGQGTTVTVSSASTKGPSVFPLAPSSKSTSGGTAALGCLVKDYFPEPVTVSWNSGALTSGVHTFPAVLQSSGLYSLSSVVTVPSSSLGTQTYICNVNHKPSNTKVDKKVEPKSCDKTHTCPPCPAPKRRGGPSVFLFPPKPKDTLMISRTPEVTCVVVDVSHEDPEVKFNWYVDGVEVHNAKTKPREEQYNSTYRVVSVLTVLHQDWLNGKEYKCKVSNKALPAPIEKTISKAKGQPREPQVYVLPPSRDELTKNQVSLLCLVKGFYPSDIAVEWESNGQPENNYLTWPPVLDSDGSFFLYSKLTVDKSRWQQGNVFSCSVMHEALHNHYTQKSLSLSPGK
chain: CPPCPAPEDEGGPSVFLFPPKPKDTLMISRTPEVTCVVVDVSHEDPEVKFNWYVDGVEVHNAKTKPREEQYNSTYRVVSVLTVLHQDWLNGKEYKCKVSNKALPAPIEKTISKAKGQPREPQVYVYPPSRDELTKNQVSLTCLVKGFYPSDIAVEWESNGQPENNYKTTPPVLDSDGSFALVSKLTVDKSRWQQGNVFSCSVMHEALHNHYTQKSLSLSPGK
Molecule B2 displayed a Kd in assay [24] of 21 nM.

What is called Kd is the concentration at which binding is half-saturated.

The record behind these values is patent US20250084169A1 (published 2025).
